# Test results: the supplement of paper PMC10567573
# B1: RAD51 (parent)
# chain: APKKELINIKGISEAKADKILAEA
# B2: TMEM175 (parent)
# chain: QTSAFARQPRDELERVRVSCTIIF
# Variants of: B1
# Experiment: protein stability index of a GFP-peptide fusion (GPS, HEK-293T) (PSI 1-6); higher = more stable
# Settings: c terminus: a fixed tail appended
# 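Note: lentivirally expressed fusions sorted by FACS into six bins by GFP to DsRed ratio, PSI derived from sequencing read proportions per bin multiplied by bin number.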
row,Variant,protein stability index
1,N8I,3.43
2,N8T,4.01
3,N8A,4.7
4,N8F,3.76
5,N8R,4.79
6,N8M,4.17
7,A17G,4.84
8,A17P,4.82
9,A17N,4.94
10,A17E,5.22
11,A17I,4.15
12,A17L,4.53
13,A17T,4.42
14,A17D,5.51
15,K4T,4.69
16,K4S,4.96
17,K4W,3.98
18,E23H,3.85
19,E23D,4.96
20,E23M,3.72
21,E23K,4.46
22,E23I,3.36
23,E23A,4.18

row,Variant,protein stability index
1,E23T,4.13
2,A22L,4.19
3,A22K,5.24
4,A22I,4.25
5,I12T,5.16
6,I12V,4.7
7,I12F,4.33
8,I12C,4.96
9,I12D,5.91
10,I12M,4.98
11,I12W,4.36
12,I12Y,4.13
13,I12K,5.36
14,I12N,5.06
15,I12E,4.54
16,P2G,4.68
17,P2M,4.53
18,P2C,4.5
19,P2K,4.34
20,I7C,4.21
21,I7D,5.31
22,I7T,5.04
23,I7S,5.52

row,Variant,protein stability index
1,I7N,4.7
2,I7P,5.04
3,L21I,5.32
4,L21P,5.21
5,L21M,4.98
6,L21F,4.13
7,L21T,5.25
8,L21Q,5.18
9,G11C,4.17
10,G11R,4.37
11,G11W,3.4
12,G11P,4.93
13,G11L,3.69
14,G11S,5.46
15,G11F,3.69
16,K19Y,4.61
17,K19D,4.98
18,K19H,4.3
19,K19P,4.48
20,K16T,5.22
21,K16S,4.61
22,K16N,5.08
23,K16P,4.84

row,Variant,protein stability index
1,K16W,1.64
2,I20R,4.75
3,I20C,5.14
4,I20P,5.5
5,I20A,5.03
6,I20K,5.46
7,I20Q,5.69
8,I20S,4.95
9,I20H,5.11
10,K3F,3.48
11,K3M,3.95
12,K3D,4.71
13,K3V,5.06
14,K3N,4.58
15,K3E,4.94
16,K3P,4.83
17,K3Q,4.81
18,K3L,3.3
19,S13V,4.02
20,S13Q,4.83
21,S13D,5.12
22,S13E,5.23
23,S13P,4.88

row,Variant,protein stability index
1,A15E,5.25
2,A15S,4.78
3,A15G,4.81
4,A15L,4.27
5,A15T,5.07
6,A15D,4.64
7,A15Q,4.58
8,A1Y,3.83
9,A1W,3.75
10,A1G,4.71
11,A1S,4.52
12,A1E,5.23
13,A1F,3.87
14,A1K,4.84
15,A1M,4.06
16,A1N,4.71
17,K10L,4.29
18,K10C,4.19
19,K10V,4.38
20,K10F,3.82
21,K10M,4.02
22,K10E,5.1
23,K10Y,3.8

row,Variant,protein stability index
1,K10G,5.08
2,E14C,3.66
3,E14A,4.4
4,E14T,4.43
5,E14Y,3.65
6,E14M,4.23
7,E5H,4.48
8,E5D,4.6
9,E5R,4.16
10,E5K,4
11,E5Q,3.96
12,E5W,3.01
13,E5N,4.22
14,E5Y,3.1
15,E5V,3.65
16,E5S,4.34
17,E5P,4.54
18,I9W,4.65
19,I9S,4.89
20,I9L,4.62
21,D18C,3.36
22,D18R,4.07
23,D18N,4.04

row,Variant,protein stability index
1,D18F,2.59
2,D18E,3.83
3,D18I,3.62
4,D18A,4.26
5,L6P,5.31
6,L6I,4.4
7,L6N,4.94
8,L6V,5.2
9,L6W,4.12
10,L6F,4.4
11,L6D,5.45
12,A24K,5.26
13,A24N,4.96
14,A24G,4.9
15,A24E,3.9
16,A24D,4.83
17,A24H,4.76
18,A24W,3.97
19,A24Y,3.76
20,A24R,4.83

# Variants of: B2
# Experiment: as above
# Settings: c terminus: a fixed tail appended
row,Variant,protein stability index
1,R15I,3.42
2,R15G,3.8
3,R15K,3.37
4,R15M,2.04
5,R15E,3.77
6,R15W,3.37
7,R15F,2.54
8,R15Y,3.62
9,R15Q,1.77
10,R15D,1.79
11,R15A,3.73
12,R15T,5.08
13,R15C,1.88
14,R15V,2.81
15,R15N,4.18
16,R15P,2.19
17,R15L,3.73
18,T21E,1.76
19,T21I,2.63
20,T21A,2
21,T21H,2.12
22,T21G,2.91
23,T21F,2.01
24,T21M,2.77
25,T21K,1.66
26,T21S,2.3

row,Variant,protein stability index
1,T21P,2.06
2,T21D,2.72
3,T21Y,1.34
4,T21C,2.27
5,T21N,2.7
6,T21L,2.64
7,T21Q,1.58
8,T21R,1.52
9,E14Y,3.27
10,E14V,2.86
11,E14Q,2.93
12,E14W,2.96
13,E14R,2.03
14,R17A,3.04
15,R17I,2.2
16,R17C,1.28
17,R17E,2.92
18,R17P,2.09
19,R17M,2.91
20,R17Y,4.15
21,R17Q,3.06
22,R17F,2
23,R17L,4.15
24,R17D,2.58
25,R17N,3.17
26,R17G,2.53

row,Variant,protein stability index
1,R17H,2.73
2,R17S,2.35
3,I23C,1.67
4,I23E,1.57
5,I23S,2.69
6,I23Y,2.6
7,I23V,3.26
8,I23K,2.07
9,I23N,2.37
10,I23R,2.21
11,I23M,2.91
12,I23F,3.33
13,I23G,2.83
14,I23H,2.56
15,I23A,2.06
16,I23L,1.82
17,I23P,3.13
18,I23Q,1.79
19,I23D,2.81
20,I22K,3.06
21,I22F,1.65
22,I22L,2.49
23,I22V,2.17
24,I22W,2.02
25,I22P,3.2
26,I22N,3.05

row,Variant,protein stability index
1,I22H,2.72
2,I22D,3.54
3,I22E,2.91
4,I22R,2.42
5,I22M,1.88
6,I22A,1.99
7,I22C,2.08
8,I22S,2.28
9,I22G,2.94
10,I22Y,1.69
11,I22Q,2.62
12,I22T,2.71
13,V18S,2.23
14,V18C,1.82
15,V18Q,1.71
16,V18A,2.53
17,V18R,1.57
18,V18G,1.79
19,V18N,2.35
20,V18T,2.2
21,V18M,1.88
22,V18K,2.41
23,V18H,1.83
24,V18W,2.19
25,V18F,2.17
26,V18L,1.08

row,Variant,protein stability index
1,V18E,2.31
2,V18Y,2.11
3,V18D,2.02
4,V18P,2.47
5,V18I,2.49
6,V16L,1.91
7,V16Q,2.53
8,V16N,2.04
9,V16G,1.14
10,V16S,1.83
11,V16R,2.47
12,V16T,1.4
13,V16M,1.16
14,V16H,2.65
15,V16Y,2.81
16,V16D,1.98
17,V16E,2.22
18,V16F,2
19,V16A,2.06
20,V16I,2.63
21,V16K,1.97
22,V16W,2.56
23,S19I,1.73
24,S19P,1.6
25,S19Y,1.65
26,S19F,1.57

row,Variant,protein stability index
1,S19R,1.84
2,S19H,2.13
3,S19A,1.55
4,S19Q,2.37
5,S19N,3.03
6,S19V,1.99
7,S19L,1.78
8,S19C,1.97
9,S19W,1.39
10,S19G,2.74
11,S19M,2.94
12,S19T,3.22
13,F24G,2.12
14,F24Y,2.08
15,F24R,2.37
16,F24N,2.48
17,F24L,2.47
18,F24K,3.15
19,F24P,2.78
20,F24Q,2.56
21,F24M,2.35
22,F24A,2.02
23,F24H,2.01
24,F24C,2.66
25,F24W,1.21
26,F24T,1.64

row,Variant,protein stability index
1,F24S,2.46
2,F24D,3.47
3,F24E,3.76
4,C20F,2.07
5,C20H,1.57
6,C20R,3.05
7,C20W,2.42
8,C20P,1.78
9,C20K,1.95
10,C20N,2.57
11,C20D,2.53
12,C20G,1.56
13,C20E,2.22
14,C20Y,1.83
15,C20S,1.94
16,C20I,2.61
17,C20A,2.33
18,C20V,1.83
19,C20T,1.51
20,C20Q,2.42
